Consider 3 molecules from article PMC4844672 (Nature Communications, 2016).

Data set [1] deals with GbLFY-SAM (N-terminal SAM domain of Ginkgo biloba LEAFY, wild type) (Ginkgo biloba). As to the kind of experiment: SEC-MALS; SEC-MALLS on Superdex-200 10/300GL in buffer A, 20 °C, 0.5 ml/min; 50 µl at ~4.5 mg/ml injected; [RE+TE] is an equimolar mixture of the TE and RE mutants.
A further data set deals with T1, AtLFY (Arabidopsis thaliana, UniProt Q00958 1-420).
T1 sequence: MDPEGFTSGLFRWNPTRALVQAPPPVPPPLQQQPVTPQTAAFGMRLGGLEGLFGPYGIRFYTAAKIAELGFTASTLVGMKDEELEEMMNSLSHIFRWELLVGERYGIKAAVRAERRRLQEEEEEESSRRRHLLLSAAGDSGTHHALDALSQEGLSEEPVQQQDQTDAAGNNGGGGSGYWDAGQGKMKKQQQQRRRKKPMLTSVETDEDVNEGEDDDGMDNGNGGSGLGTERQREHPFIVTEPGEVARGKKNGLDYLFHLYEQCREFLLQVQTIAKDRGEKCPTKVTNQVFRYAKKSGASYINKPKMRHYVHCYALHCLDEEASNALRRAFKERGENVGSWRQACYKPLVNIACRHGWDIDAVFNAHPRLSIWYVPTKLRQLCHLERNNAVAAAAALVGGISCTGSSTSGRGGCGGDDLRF
As to the kind of experiment: EMSA; 500 nM; behaves like GbLFYΔ; EMSA: 20 mM Tris-HCl pH 7.5, 150 mM NaCl, 1% glycerol, 0.25 mM EDTA, 2 mM MgCl2, 0.01% Tween-20, 3 mM TCEP, 28 ng/ml fish sperm DNA, 10 nM probe, 25-500 nM prot.

Data set [2] concerns the molecule itself. As to the kind of experiment: SEC; Superdex-200 10/300GL in buffer A, 4 °C, calibrated with protein standards; molecular mass estimated at different protein concentrations.

For the molecule “GbLFY-SAM (N-terminal SAM domain of Ginkgo biloba LEAFY, wild type) (domain or fragment)”, the stoichiometry N in data set [1] was under 8 monomers.

B1: AGI-II (dsDNA)
DNA 1: CGTTTAAATTTAATCCAATGGTTACAATTTTAATACTATCAAATGTCTATTGGATTTATACCCAATGTGTTAATGGGTTG
DNA 2: CAACCCATTAACACATTGGGTATAAATCCAATAGACATTTGATAGTATTAAAATTGTAACCATTGGATTAAATTTAAACG
Regarding B1, the binding result in the data set with AtLFY is “binds”.

B2: AtLFY-SAM (SAM domain of A. thaliana LEAFY) (domain or fragment, Arabidopsis thaliana, UniProt Q00958 38-151, looked up)
chain: QTAAFGMRLGGLEGLFGPYGIRFYTAAKIAELGFTASTLVGMKDEELEEMMNSLSHIFRWELLVGERYGIKAAVRAERRRLQEEEEEESSRRRHLLLSAAGDSGTHHALDALSQ
notes: LEAFY (LFY) of Arabidopsis thaliana, residues 38-151 of the A. thaliana LFY cDNA (plasmid pETH201, vector pETM-11); also called SAM domain of A. thaliana LFY; source: E. coli Rosetta2 (DE3), purified (Ni-Sepharose, TEV cleavage, Superdex-200); not shown: 6 x His, N-terminal, cleaved
For the molecule B2, in data set [2], the binding result is listed as “binds”.
